In paper PMC10381084:

Columns and labels:
[1] = target: Myc-Pk (Drosophila Prickle) (UniProt A1Z6W3); test: co-immunoprecipitation (IP α-Flag, IB α-Myc), western blot quantification; conditions: S2 cells; 6 independent replicates; parent: est. 18; read off a plot
[2] = target: Dsh-GFP (Drosophila Dishevelled) (UniProt P51140); test: co-immunoprecipitation (IP α-Flag, IB α-GFP), western blot quantification; conditions: S2 cells, read off a plot
[3] = 6–7 replicates, parent: est. 12

Sequence of UniProt P51140 (P51140 whole entry, looked up): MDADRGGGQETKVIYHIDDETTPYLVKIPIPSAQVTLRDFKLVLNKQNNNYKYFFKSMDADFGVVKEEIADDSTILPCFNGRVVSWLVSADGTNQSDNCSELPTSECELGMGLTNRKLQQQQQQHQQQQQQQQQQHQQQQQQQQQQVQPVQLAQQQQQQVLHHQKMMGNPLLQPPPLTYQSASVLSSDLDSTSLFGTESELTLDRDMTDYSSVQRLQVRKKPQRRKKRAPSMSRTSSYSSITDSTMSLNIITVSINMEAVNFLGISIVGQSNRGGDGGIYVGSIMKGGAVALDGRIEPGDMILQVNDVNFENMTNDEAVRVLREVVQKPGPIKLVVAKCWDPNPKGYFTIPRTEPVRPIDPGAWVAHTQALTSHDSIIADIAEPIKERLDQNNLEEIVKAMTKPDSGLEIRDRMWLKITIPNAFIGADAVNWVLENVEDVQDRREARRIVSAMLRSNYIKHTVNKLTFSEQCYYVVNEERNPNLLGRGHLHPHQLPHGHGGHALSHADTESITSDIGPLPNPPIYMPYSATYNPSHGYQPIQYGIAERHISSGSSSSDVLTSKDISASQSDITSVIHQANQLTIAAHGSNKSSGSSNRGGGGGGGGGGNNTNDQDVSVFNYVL
Sequence of UniProt A1Z6W3 (A1Z6W3 whole entry, looked up): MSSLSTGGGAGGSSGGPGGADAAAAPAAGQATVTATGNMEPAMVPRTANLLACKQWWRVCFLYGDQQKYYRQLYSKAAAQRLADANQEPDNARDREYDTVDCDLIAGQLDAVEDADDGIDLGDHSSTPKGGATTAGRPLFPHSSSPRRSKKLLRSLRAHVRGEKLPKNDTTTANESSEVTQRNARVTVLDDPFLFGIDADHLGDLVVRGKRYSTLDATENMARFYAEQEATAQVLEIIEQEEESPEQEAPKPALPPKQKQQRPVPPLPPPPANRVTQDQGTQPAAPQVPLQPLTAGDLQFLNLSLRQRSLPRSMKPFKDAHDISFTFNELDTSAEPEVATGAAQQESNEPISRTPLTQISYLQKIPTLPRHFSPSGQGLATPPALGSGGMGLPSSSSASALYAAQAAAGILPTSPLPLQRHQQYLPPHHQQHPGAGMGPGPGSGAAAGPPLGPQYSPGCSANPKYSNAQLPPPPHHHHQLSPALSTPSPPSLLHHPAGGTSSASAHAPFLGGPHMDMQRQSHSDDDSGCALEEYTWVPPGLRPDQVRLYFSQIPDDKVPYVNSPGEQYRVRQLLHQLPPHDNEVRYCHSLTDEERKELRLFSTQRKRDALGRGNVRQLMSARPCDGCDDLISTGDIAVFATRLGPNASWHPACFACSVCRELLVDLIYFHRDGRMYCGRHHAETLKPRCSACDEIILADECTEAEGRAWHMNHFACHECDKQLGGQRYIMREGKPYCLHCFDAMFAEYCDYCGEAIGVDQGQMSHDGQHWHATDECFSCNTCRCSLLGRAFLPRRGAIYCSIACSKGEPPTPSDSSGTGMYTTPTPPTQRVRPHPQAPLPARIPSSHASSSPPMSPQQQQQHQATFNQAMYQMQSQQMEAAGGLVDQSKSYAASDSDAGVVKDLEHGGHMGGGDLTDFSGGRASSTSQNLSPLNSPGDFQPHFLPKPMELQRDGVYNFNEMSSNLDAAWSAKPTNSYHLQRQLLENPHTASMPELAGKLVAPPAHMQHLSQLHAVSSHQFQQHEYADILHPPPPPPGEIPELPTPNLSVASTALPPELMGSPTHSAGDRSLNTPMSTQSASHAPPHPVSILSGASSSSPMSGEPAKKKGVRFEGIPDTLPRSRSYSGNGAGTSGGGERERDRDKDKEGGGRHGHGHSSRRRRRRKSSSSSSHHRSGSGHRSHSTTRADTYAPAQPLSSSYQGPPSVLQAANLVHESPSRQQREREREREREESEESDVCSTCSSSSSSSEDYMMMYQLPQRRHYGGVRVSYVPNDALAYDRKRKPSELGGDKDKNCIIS

Row | response [1] | response [2, 3] | response ([2]; 6 replicates, parent: est. 9.6) | Substance
1 | 1 a.u. | 1.6 a.u. | – | Vang-Flagx3 (Drosophila Van Gogh, wild type) F371A; K372A; Y374A
2 | – | – | 2.5 a.u. | Vang-Flagx3 (Drosophila Van Gogh, wild type) V376A
3 | 2.5 a.u. | 2.5 a.u. | – | Vang-Flagx3 (Drosophila Van Gogh, wild type) Y374A
